In US20260209293A1 (Novo Nordisk, published 2026):
*1 amine or outer side, *2 acyl side, *3 side chain or, on linkers, in order; H or OH if unused. The star is where a group is joined. C20 diacid = O=C(O)CCCCCCCCCCCCCCCCCCC(=O)*; C18 diacid = O=C(O)CCCCCCCCCCCCCCCCC(=O)*; γGlu = O=C(O)[C@H](CCC(=O)[*:2])N[*:1]

T1: human calcitonin receptor (a) (human, UniProt P30988 25-474)
T1 sequence (looked up): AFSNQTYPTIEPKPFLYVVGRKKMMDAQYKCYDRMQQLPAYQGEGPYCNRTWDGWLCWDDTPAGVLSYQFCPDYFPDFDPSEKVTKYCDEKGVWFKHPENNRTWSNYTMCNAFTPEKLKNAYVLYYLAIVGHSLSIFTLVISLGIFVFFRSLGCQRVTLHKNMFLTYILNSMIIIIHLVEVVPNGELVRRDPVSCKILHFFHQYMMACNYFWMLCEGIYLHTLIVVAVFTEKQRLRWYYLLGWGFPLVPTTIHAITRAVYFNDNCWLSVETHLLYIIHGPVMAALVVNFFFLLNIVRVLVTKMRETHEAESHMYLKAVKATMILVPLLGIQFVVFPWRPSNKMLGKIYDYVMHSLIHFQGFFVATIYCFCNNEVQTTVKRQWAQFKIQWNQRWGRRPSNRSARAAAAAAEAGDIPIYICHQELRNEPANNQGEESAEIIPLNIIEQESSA

T2: human amylin-3(a) receptor (human, UniProt P30988 25-474; O60896 24-148)
T2 sequence (looked up) 1: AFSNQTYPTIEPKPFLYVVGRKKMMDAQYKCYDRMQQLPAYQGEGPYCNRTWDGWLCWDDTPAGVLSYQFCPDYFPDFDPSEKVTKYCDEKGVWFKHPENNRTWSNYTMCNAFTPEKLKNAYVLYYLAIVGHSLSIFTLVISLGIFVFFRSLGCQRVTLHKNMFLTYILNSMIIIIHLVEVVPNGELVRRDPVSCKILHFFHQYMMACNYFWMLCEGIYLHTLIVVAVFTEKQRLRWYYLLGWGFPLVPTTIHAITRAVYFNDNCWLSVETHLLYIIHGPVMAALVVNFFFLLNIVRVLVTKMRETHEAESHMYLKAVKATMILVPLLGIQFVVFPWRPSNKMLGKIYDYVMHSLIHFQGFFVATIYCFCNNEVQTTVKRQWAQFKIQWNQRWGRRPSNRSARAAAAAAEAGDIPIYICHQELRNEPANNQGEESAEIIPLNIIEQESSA
T2 sequence (looked up) 2: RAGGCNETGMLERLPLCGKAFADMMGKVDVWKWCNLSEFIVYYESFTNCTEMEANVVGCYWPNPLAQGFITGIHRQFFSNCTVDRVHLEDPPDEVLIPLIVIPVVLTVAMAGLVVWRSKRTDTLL


Assays:
[1] = target: T1, human calcitonin receptor (a); experiment: cell-based or functional assay
[2] = target: T2, human amylin-3(a) receptor; experiment: cell-based or functional assay

Row | Binder | hCalcR potency, EC50 (pM); CRE-luciferase reporter in BHK cells [1] | hAmyR3 potency, EC50 (pM); CRE-luciferase reporter in BHK cells [2]
1 | {C20 diacid-γGlu}-ASHLSTAQTARLAEFLHHSSDNFGPILPPTDVGSNTP-NH2 (SMILES CC[C@H](C)[C@H](NC(=O)[C@@H]1CCCN1C(=O)CNC(=O)[C@H](Cc1ccccc1)NC(=O)[C@H](CC(N)=O)NC(=O)[C@H](CC(=O)O)NC(=O)[C@H](CO)NC(=O)[C@H](CO)NC(=O)[C@H](Cc1c[nH]cn1)NC(=O)[C@H](Cc1c[nH]cn1)NC(=O)[C@H](CC(C)C)NC(=O)[C@H](Cc1ccccc1)NC(=O)[C@H](CCC(=O)O)NC(=O)[C@H](C)NC(=O)[C@H](CC(C)C)NC(=O)[C@H](CCCNC(=N)N)NC(=O)[C@H](C)NC(=O)[C@@H](NC(=O)[C@H](CCC(N)=O)NC(=O)[C@H](C)NC(=O)[C@@H](NC(=O)[C@H](CO)NC(=O)[C@H](CC(C)C)NC(=O)[C@H](Cc1c[nH]cn1)NC(=O)[C@H](CO)NC(=O)[C@H](C)NC(=O)CC[C@H](NC(=O)CCCCCCCCCCCCCCCCCCC(=O)O)C(=O)O)[C@@H](C)O)[C@@H](C)O)C(=O)N[C@@H](CC(C)C)C(=O)N1CCC[C@H]1C(=O)N1CCC[C@H]1C(=O)N[C@H](C(=O)N[C@@H](CC(=O)O)C(=O)N[C@H](C(=O)NCC(=O)N[C@@H](CO)C(=O)N[C@@H](CC(N)=O)C(=O)N[C@H](C(=O)N1CCC[C@H]1C(N)=O)[C@@H](C)O)C(C)C)[C@@H](C)O) | 1.31 pM | 0.77 pM
2 | {C20 diacid-γGlu}-AGHLSTAQTQRLAEFLHHSSDPFGAIPSSTDVGPDTP-NH2 (SMILES CC[C@H](C)[C@H](NC(=O)[C@H](C)NC(=O)CNC(=O)[C@H](Cc1ccccc1)NC(=O)[C@@H]1CCCN1C(=O)[C@H](CC(=O)O)NC(=O)[C@H](CO)NC(=O)[C@H](CO)NC(=O)[C@H](Cc1c[nH]cn1)NC(=O)[C@H](Cc1c[nH]cn1)NC(=O)[C@H](CC(C)C)NC(=O)[C@H](Cc1ccccc1)NC(=O)[C@H](CCC(=O)O)NC(=O)[C@H](C)NC(=O)[C@H](CC(C)C)NC(=O)[C@H](CCCNC(=N)N)NC(=O)[C@H](CCC(N)=O)NC(=O)[C@@H](NC(=O)[C@H](CCC(N)=O)NC(=O)[C@H](C)NC(=O)[C@@H](NC(=O)[C@H](CO)NC(=O)[C@H](CC(C)C)NC(=O)[C@H](Cc1c[nH]cn1)NC(=O)CNC(=O)[C@H](C)NC(=O)CC[C@H](NC(=O)CCCCCCCCCCCCCCCCCCC(=O)O)C(=O)O)[C@@H](C)O)[C@@H](C)O)C(=O)N1CCC[C@H]1C(=O)N[C@@H](CO)C(=O)N[C@@H](CO)C(=O)N[C@H](C(=O)N[C@@H](CC(=O)O)C(=O)N[C@H](C(=O)NCC(=O)N1CCC[C@H]1C(=O)N[C@@H](CC(=O)O)C(=O)N[C@H](C(=O)N1CCC[C@H]1C(N)=O)[C@@H](C)O)C(C)C)[C@@H](C)O) | 1.81 pM | 1.68 pM
3 | {C18 diacid-γGlu}-ASHLSTAQTQRLAEFLHHSSDPFGAIPSSTDVGPDTP-NH2 (SMILES CC[C@H](C)[C@H](NC(=O)[C@H](C)NC(=O)CNC(=O)[C@H](Cc1ccccc1)NC(=O)[C@@H]1CCCN1C(=O)[C@H](CC(=O)O)NC(=O)[C@H](CO)NC(=O)[C@H](CO)NC(=O)[C@H](Cc1c[nH]cn1)NC(=O)[C@H](Cc1c[nH]cn1)NC(=O)[C@H](CC(C)C)NC(=O)[C@H](Cc1ccccc1)NC(=O)[C@H](CCC(=O)O)NC(=O)[C@H](C)NC(=O)[C@H](CC(C)C)NC(=O)[C@H](CCCNC(=N)N)NC(=O)[C@H](CCC(N)=O)NC(=O)[C@@H](NC(=O)[C@H](CCC(N)=O)NC(=O)[C@H](C)NC(=O)[C@@H](NC(=O)[C@H](CO)NC(=O)[C@H](CC(C)C)NC(=O)[C@H](Cc1c[nH]cn1)NC(=O)[C@H](CO)NC(=O)[C@H](C)NC(=O)CC[C@H](NC(=O)CCCCCCCCCCCCCCCCC(=O)O)C(=O)O)[C@@H](C)O)[C@@H](C)O)C(=O)N1CCC[C@H]1C(=O)N[C@@H](CO)C(=O)N[C@@H](CO)C(=O)N[C@H](C(=O)N[C@@H](CC(=O)O)C(=O)N[C@H](C(=O)NCC(=O)N1CCC[C@H]1C(=O)N[C@@H](CC(=O)O)C(=O)N[C@H](C(=O)N1CCC[C@H]1C(N)=O)[C@@H](C)O)C(C)C)[C@@H](C)O) | 1.44 pM | 1.5 pM
4 | {C18 diacid-γGlu}-AGSLSTAQTQRLAEFLHHSSDPFGAIPSSTDVGPDTP-NH2 (SMILES CC[C@H](C)[C@H](NC(=O)[C@H](C)NC(=O)CNC(=O)[C@H](Cc1ccccc1)NC(=O)[C@@H]1CCCN1C(=O)[C@H](CC(=O)O)NC(=O)[C@H](CO)NC(=O)[C@H](CO)NC(=O)[C@H](Cc1c[nH]cn1)NC(=O)[C@H](Cc1c[nH]cn1)NC(=O)[C@H](CC(C)C)NC(=O)[C@H](Cc1ccccc1)NC(=O)[C@H](CCC(=O)O)NC(=O)[C@H](C)NC(=O)[C@H](CC(C)C)NC(=O)[C@H](CCCNC(=N)N)NC(=O)[C@H](CCC(N)=O)NC(=O)[C@@H](NC(=O)[C@H](CCC(N)=O)NC(=O)[C@H](C)NC(=O)[C@@H](NC(=O)[C@H](CO)NC(=O)[C@H](CC(C)C)NC(=O)[C@H](CO)NC(=O)CNC(=O)[C@H](C)NC(=O)CC[C@H](NC(=O)CCCCCCCCCCCCCCCCC(=O)O)C(=O)O)[C@@H](C)O)[C@@H](C)O)C(=O)N1CCC[C@H]1C(=O)N[C@@H](CO)C(=O)N[C@@H](CO)C(=O)N[C@H](C(=O)N[C@@H](CC(=O)O)C(=O)N[C@H](C(=O)NCC(=O)N1CCC[C@H]1C(=O)N[C@@H](CC(=O)O)C(=O)N[C@H](C(=O)N1CCC[C@H]1C(N)=O)[C@@H](C)O)C(C)C)[C@@H](C)O) | 1.49 pM | 1.44 pM

More lines, now with the values ahead:

Row | hCalcR potency, EC50 (pM); CRE-luciferase reporter in BHK cells [1] | hAmyR3 potency, EC50 (pM); CRE-luciferase reporter in BHK cells [2] | Binder
5 | 1.68 pM | 2.18 pM | {C18 diacid-γGlu-γGlu}-ASHLSTAQTQRLAEFLHHSSDPFGAIPSSTDVGPDTP-NH2 (SMILES CC[C@H](C)[C@H](NC(=O)[C@H](C)NC(=O)CNC(=O)[C@H](Cc1ccccc1)NC(=O)[C@@H]1CCCN1C(=O)[C@H](CC(=O)O)NC(=O)[C@H](CO)NC(=O)[C@H](CO)NC(=O)[C@H](Cc1c[nH]cn1)NC(=O)[C@H](Cc1c[nH]cn1)NC(=O)[C@H](CC(C)C)NC(=O)[C@H](Cc1ccccc1)NC(=O)[C@H](CCC(=O)O)NC(=O)[C@H](C)NC(=O)[C@H](CC(C)C)NC(=O)[C@H](CCCNC(=N)N)NC(=O)[C@H](CCC(N)=O)NC(=O)[C@@H](NC(=O)[C@H](CCC(N)=O)NC(=O)[C@H](C)NC(=O)[C@@H](NC(=O)[C@H](CO)NC(=O)[C@H](CC(C)C)NC(=O)[C@H](Cc1c[nH]cn1)NC(=O)[C@H](CO)NC(=O)[C@H](C)NC(=O)CC[C@H](NC(=O)CC[C@H](NC(=O)CCCCCCCCCCCCCCCCC(=O)O)C(=O)O)C(=O)O)[C@@H](C)O)[C@@H](C)O)C(=O)N1CCC[C@H]1C(=O)N[C@@H](CO)C(=O)N[C@@H](CO)C(=O)N[C@H](C(=O)N[C@@H](CC(=O)O)C(=O)N[C@H](C(=O)NCC(=O)N1CCC[C@H]1C(=O)N[C@@H](CC(=O)O)C(=O)N[C@H](C(=O)N1CCC[C@H]1C(N)=O)[C@@H](C)O)C(C)C)[C@@H](C)O)
6 | 1.25 pM | 0.86 pM | {C20 diacid-γGlu}-ASHLSTAQTQRLAEFLHHSSDPFGAIPSSTDVGPDTP-NH2 (SMILES CC[C@H](C)[C@H](NC(=O)[C@H](C)NC(=O)CNC(=O)[C@H](Cc1ccccc1)NC(=O)[C@@H]1CCCN1C(=O)[C@H](CC(=O)O)NC(=O)[C@H](CO)NC(=O)[C@H](CO)NC(=O)[C@H](Cc1c[nH]cn1)NC(=O)[C@H](Cc1c[nH]cn1)NC(=O)[C@H](CC(C)C)NC(=O)[C@H](Cc1ccccc1)NC(=O)[C@H](CCC(=O)O)NC(=O)[C@H](C)NC(=O)[C@H](CC(C)C)NC(=O)[C@H](CCCNC(=N)N)NC(=O)[C@H](CCC(N)=O)NC(=O)[C@@H](NC(=O)[C@H](CCC(N)=O)NC(=O)[C@H](C)NC(=O)[C@@H](NC(=O)[C@H](CO)NC(=O)[C@H](CC(C)C)NC(=O)[C@H](Cc1c[nH]cn1)NC(=O)[C@H](CO)NC(=O)[C@H](C)NC(=O)CC[C@H](NC(=O)CCCCCCCCCCCCCCCCCCC(=O)O)C(=O)O)[C@@H](C)O)[C@@H](C)O)C(=O)N1CCC[C@H]1C(=O)N[C@@H](CO)C(=O)N[C@@H](CO)C(=O)N[C@H](C(=O)N[C@@H](CC(=O)O)C(=O)N[C@H](C(=O)NCC(=O)N1CCC[C@H]1C(=O)N[C@@H](CC(=O)O)C(=O)N[C@H](C(=O)N1CCC[C@H]1C(N)=O)[C@@H](C)O)C(C)C)[C@@H](C)O)
